In PMC2756588:

T1: Pex13, P80667
T1 sequence (P80667 295-386, looked up): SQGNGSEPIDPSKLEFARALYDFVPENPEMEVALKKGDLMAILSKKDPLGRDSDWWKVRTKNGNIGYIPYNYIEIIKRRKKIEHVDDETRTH

T2: Pin3, Q06449
T2 sequence (Q06449 53-122, looked up): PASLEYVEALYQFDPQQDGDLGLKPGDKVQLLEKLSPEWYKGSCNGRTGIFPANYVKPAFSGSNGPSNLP

T3: Abp1, P15891
T3 sequence (P15891 535-592, looked up): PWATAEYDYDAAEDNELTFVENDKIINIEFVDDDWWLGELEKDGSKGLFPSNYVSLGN

T4: Hof1, Q05080
T4 sequence (Q05080 590-669, looked up): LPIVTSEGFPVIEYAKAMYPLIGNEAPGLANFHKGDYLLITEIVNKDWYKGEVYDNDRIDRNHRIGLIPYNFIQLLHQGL

T5: Boi2, P39969
T5 sequence (P39969 32-116, looked up): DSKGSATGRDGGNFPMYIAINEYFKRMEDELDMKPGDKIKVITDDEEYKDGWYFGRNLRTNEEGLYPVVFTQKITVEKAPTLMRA

T6: Nbp2, Q12163
T6 sequence (Q12163 103-180, looked up): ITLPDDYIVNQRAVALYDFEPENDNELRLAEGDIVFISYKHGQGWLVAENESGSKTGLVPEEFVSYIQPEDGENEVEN

T7: Lsb4, P32793
T7 sequence (P32793 402-468, looked up): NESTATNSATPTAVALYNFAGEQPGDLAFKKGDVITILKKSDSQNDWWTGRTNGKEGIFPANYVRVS

T8: Bzz1-2, P38822
T8 sequence (P38822 568-633, looked up): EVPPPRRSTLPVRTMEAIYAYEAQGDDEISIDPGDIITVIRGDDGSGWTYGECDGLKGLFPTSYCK

T9: Bud14, P27637
T9 sequence (P27637 247-328, looked up): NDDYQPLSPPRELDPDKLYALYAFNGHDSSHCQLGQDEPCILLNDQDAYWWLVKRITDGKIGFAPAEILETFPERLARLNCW

T10: Hse1, P38753
T10 sequence (P38753 208-285, looked up): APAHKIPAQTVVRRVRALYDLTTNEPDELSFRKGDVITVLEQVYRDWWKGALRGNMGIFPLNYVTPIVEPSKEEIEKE

T11: Myo5, Q04439
T11 sequence (Q04439 1072-1160, looked up): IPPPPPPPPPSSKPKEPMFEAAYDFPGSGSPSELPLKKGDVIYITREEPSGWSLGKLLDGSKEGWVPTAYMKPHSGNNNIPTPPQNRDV

T12: Fus1, P11710
T12 sequence (P11710 432-512, looked up): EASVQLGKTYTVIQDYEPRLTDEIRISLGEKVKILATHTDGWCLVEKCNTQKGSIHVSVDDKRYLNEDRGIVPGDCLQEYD

T13: Cdc25, P04821
T13 sequence (P04821 50-136, looked up): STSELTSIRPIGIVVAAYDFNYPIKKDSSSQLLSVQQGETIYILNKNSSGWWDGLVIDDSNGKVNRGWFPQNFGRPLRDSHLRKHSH

T14: Lsb1, P53281
T14 sequence (P53281 45-122, looked up): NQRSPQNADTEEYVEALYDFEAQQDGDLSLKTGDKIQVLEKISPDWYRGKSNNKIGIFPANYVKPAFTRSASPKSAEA

T15: Sla1-3, P32790
T15 sequence (P32790 344-424, looked up): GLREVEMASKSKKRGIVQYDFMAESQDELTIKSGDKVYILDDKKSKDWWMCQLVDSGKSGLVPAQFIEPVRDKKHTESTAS

T16: Bzz1-1, P38822
T16 sequence (P38822 478-572, looked up): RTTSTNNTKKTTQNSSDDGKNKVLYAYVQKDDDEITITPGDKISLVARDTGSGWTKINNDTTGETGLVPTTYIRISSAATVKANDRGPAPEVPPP

T17: Cyk3, Q07533
T17 sequence (Q07533 1-83, looked up): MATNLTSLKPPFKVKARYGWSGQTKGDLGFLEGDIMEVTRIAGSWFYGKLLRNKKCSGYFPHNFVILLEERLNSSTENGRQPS

T18: Bbc1, P47068
T18 sequence (P47068 1-78, looked up): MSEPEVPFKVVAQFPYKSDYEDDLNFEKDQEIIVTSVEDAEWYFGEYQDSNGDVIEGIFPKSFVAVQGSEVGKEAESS

T19: Boi1, P38041
T19 sequence (P38041 1-86, looked up): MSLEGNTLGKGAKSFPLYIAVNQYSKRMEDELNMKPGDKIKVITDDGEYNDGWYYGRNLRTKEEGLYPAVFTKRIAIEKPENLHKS

T20: Sla1-2, P32790
T20 sequence (P32790 60-140, looked up): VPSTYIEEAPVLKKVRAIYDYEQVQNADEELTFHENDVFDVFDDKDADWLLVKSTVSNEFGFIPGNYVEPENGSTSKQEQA

T21: Lsb3, P43603
T21 sequence (P43603 385-451, looked up): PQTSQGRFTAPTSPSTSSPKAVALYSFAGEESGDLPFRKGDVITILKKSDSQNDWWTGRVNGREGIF

B1: unnamed (peptide)
chain: GERSRPLVISILSSA
B2: unnamed (peptide)
chain: VLRFLGFPLPIFEKG
B3: unnamed (peptide)
chain: HGKRRAPLLLAKLDV
B4: unnamed (peptide)
chain: RLSFFFPLDPAYIRN
B5: unnamed (peptide)
chain: LLLLFVPDSPYDPAI
B6: unnamed (peptide)
chain: LTRRFPFLFPFDTRM

target: T1, Pex13, P80667; assay: SPOT array; details: median of control spots 1341

| SPOT intensity | Binder |
| --- | --- |
| 39 | B1 |
| 4 | B2 |
| 5 | B3 |
| 21 | B4 |
| 0 | B5 |
| 16 | B6 |

target: T2, Pin3, Q06449; assay: SPOT array; details: median of control spots 2171

| SPOT intensity | Binder |
| --- | --- |
| 26 | B1 |
| 3 | B2 |
| 9 | B3 |
| 13 | B4 |
| 0 | B5 |
| 18 | B6 |

target: T3, Abp1, P15891; assay: SPOT array; details: median of control spots 935

| SPOT intensity | Binder |
| --- | --- |
| 16 | B1 |
| 19 | B2 |
| 79 | B3 |
| 28 | B4 |
| 0 | B5 |
| 18 | B6 |

target: T4, Hof1, Q05080; assay: SPOT array; details: median of control spots 4086

| SPOT intensity | Binder |
| --- | --- |
| 0 | B1 |
| 4 | B2 |
| 0 | B3 |
| 48 | B4 |
| 0 | B5 |
| 116 | B6 |

target: T5, Boi2, P39969; assay: SPOT array; details: median of control spots 1161

| SPOT intensity | Binder |
| --- | --- |
| 0 | B1 |
| 1 | B2 |
| 0 | B3 |
| 0 | B4 |
| 0 | B5 |
| 0 | B6 |

target: T6, Nbp2, Q12163; assay: SPOT array; details: median of control spots 357

| SPOT intensity | Binder |
| --- | --- |
| 2 | B1 |
| 41 | B2 |
| 1 | B3 |
| 21 | B4 |
| 1 | B5 |
| 16 | B6 |

target: T7, Lsb4, P32793; assay: SPOT array; details: median of control spots 397

| SPOT intensity | Binder |
| --- | --- |
| 4 | B1 |
| 0 | B2 |
| 4 | B3 |
| 0 | B4 |
| 0 | B5 |
| 4 | B6 |

target: T8, Bzz1-2, P38822; assay: SPOT array; details: median of control spots 4538

| SPOT intensity | Binder |
| --- | --- |
| 1 | B1 |
| 0 | B2 |
| 1 | B3 |
| 3 | B4 |
| 0 | B5 |
| 3 | B6 |

target: Sho1, P40073; assay: SPOT array; details: median of control spots 1148
Sequence (P40073 287-367): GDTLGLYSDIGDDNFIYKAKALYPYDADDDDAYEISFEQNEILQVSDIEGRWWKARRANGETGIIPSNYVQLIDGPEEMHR

| SPOT intensity | Binder |
| --- | --- |
| 38 | B1 |
| 43 | B2 |
| 85 | B3 |
| 68 | B4 |
| 0 | B5 |
| 57 | B6 |

target: T9, Bud14, P27637; assay: SPOT array; details: median of control spots 956

| SPOT intensity | Binder |
| --- | --- |
| 14 | B1 |
| 17 | B2 |
| 14 | B3 |
| 12 | B4 |
| 3 | B5 |
| 21 | B6 |

target: T10, Hse1, P38753; assay: SPOT array; details: median of control spots 1727

| SPOT intensity | Binder |
| --- | --- |
| 0 | B1 |
| 6 | B2 |
| 0 | B3 |
| 91 | B4 |
| 0 | B5 |
| 126 | B6 |

target: T11, Myo5, Q04439; assay: SPOT array; details: median of control spots 471

| SPOT intensity | Binder |
| --- | --- |
| 0 | B1 |
| 0 | B2 |
| 0 | B3 |
| 0 | B4 |
| 0 | B5 |
| 0 | B6 |

target: T12, Fus1, P11710; assay: SPOT array; details: median of control spots 1200

| SPOT intensity | Binder |
| --- | --- |
| 3 | B1 |
| 78 | B2 |
| 0 | B3 |
| 159 | B4 |
| 1 | B5 |
| 100 | B6 |

target: T13, Cdc25, P04821; assay: SPOT array; details: median of control spots 969

| SPOT intensity | Binder |
| --- | --- |
| 16 | B1 |
| 28 | B2 |
| 7 | B3 |
| 28 | B4 |
| 0 | B5 |
| 21 | B6 |

target: T14, Lsb1, P53281; assay: SPOT array; details: median of control spots 388

| SPOT intensity | Binder |
| --- | --- |
| 0 | B1 |
| 0 | B2 |
| 0 | B3 |
| 0 | B4 |
| 0 | B5 |
| 0 | B6 |

target: T15, Sla1-3, P32790; assay: SPOT array; details: median of control spots 5475

| SPOT intensity | Binder |
| --- | --- |
| 0 | B1 |
| 0 | B2 |
| 1 | B3 |
| 113 | B4 |
| 2 | B5 |
| 129 | B6 |

target: T16, Bzz1-1, P38822; assay: SPOT array; details: median of control spots 4446

| SPOT intensity | Binder |
| --- | --- |
| 3 | B1 |
| 0 | B2 |
| 0 | B3 |
| 0 | B4 |
| 0 | B5 |
| 3 | B6 |

target: Bem1-2, P29366; assay: SPOT array; details: median of control spots 4347
Sequence (P29366 139-227): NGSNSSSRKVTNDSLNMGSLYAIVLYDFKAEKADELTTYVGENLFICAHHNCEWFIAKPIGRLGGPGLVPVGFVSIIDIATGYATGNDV

| SPOT intensity | Binder |
| --- | --- |
| 0 | B1 |
| 2 | B2 |
| 0 | B3 |
| 43 | B4 |
| 0 | B5 |
| 61 | B6 |

target: T17, Cyk3, Q07533; assay: SPOT array; details: median of control spots 1451

| SPOT intensity | Binder |
| --- | --- |
| 0 | B1 |
| 7 | B2 |
| 0 | B3 |
| 1 | B4 |
| 0 | B5 |
| 3 | B6 |

target: GST; assay: SPOT array; details: median of control spots 978

| SPOT intensity | Binder |
| --- | --- |
| 0 | B1 |
| 0 | B2 |
| 1 | B3 |
| 1 | B4 |
| 1 | B5 |
| 0 | B6 |

target: T18, Bbc1, P47068; assay: SPOT array; details: median of control spots 796

| SPOT intensity | Binder |
| --- | --- |
| 0 | B1 |
| 30 | B2 |
| 17 | B3 |
| 12 | B4 |
| 0 | B5 |
| 69 | B6 |

target: T19, Boi1, P38041; assay: SPOT array; details: median of control spots 1162

| SPOT intensity | Binder |
| --- | --- |
| 2 | B1 |
| 1 | B2 |
| 0 | B3 |
| 6 | B4 |
| 1 | B5 |
| 6 | B6 |

target: T20, Sla1-2, P32790; assay: SPOT array; details: median of control spots 712

| SPOT intensity | Binder |
| --- | --- |
| 1 | B1 |
| 0 | B2 |
| 0 | B3 |
| 0 | B4 |
| 0 | B5 |
| 1 | B6 |

target: Bem1-1, P29366; assay: SPOT array; details: median of control spots 4282
Sequence (P29366 55-141): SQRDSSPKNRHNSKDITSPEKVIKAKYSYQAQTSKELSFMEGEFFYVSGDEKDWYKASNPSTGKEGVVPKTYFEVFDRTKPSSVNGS

| SPOT intensity | Binder |
| --- | --- |
| 0 | B1 |
| 0 | B2 |
| 0 | B3 |
| 0 | B4 |
| 0 | B5 |
| 1 | B6 |

target: T21, Lsb3, P43603; assay: SPOT array; details: median of control spots 406

| SPOT intensity | Binder |
| --- | --- |
| 0 | B1 |
| 0 | B2 |
| 0 | B3 |
| 0 | B4 |
| 0 | B5 |
| 0 | B6 |

target: Rvs167, P39743; assay: SPOT array; details: median of control spots 2707
Sequence (P39743 419-482): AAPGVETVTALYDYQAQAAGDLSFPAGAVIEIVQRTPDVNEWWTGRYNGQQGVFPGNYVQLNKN

| SPOT intensity | Binder |
| --- | --- |
| 0 | B1 |
| 0 | B2 |
| 0 | B3 |
| 0 | B4 |
| 0 | B5 |
| 0 | B6 |

target: Myo3, P36006; assay: SPOT array; details: median of control spots 468

| SPOT intensity | Binder |
| --- | --- |
| 5 | B1 |
| 1 | B2 |
| 5 | B3 |
| 4 | B4 |
| 0 | B5 |
| 4 | B6 |
